Assay results taken from PMC12403130, “A β-cap on the FliPQR protein-export channel acts as the cap for initial flagellar rod assembly” (Proceedings of the National Academy of Sciences of the …, 2025).

Target: the molecule itself
Assay: cryo-EM structure; FliP, FliQ and FliR-His co-expressed in Salmonella SJW1368, complex solubilised with LMNG, purified and reconstituted in a peptidisc; single-particle analysis, C1 symmetry, 3.0 Å, closed form

B1: FliP (natural protein)
chain: QLPGLISQPLAGGGQSWSLSVQTLVFITSLTFLPAILLMMTSFTRIIIVFGLLRNALGTPSAPPNQVLLGLALFLTFFIMSPVIDKIYVDAYQPFSEQKISMQEALDKGAQPLRAFMLRQTREADLALFARLANSGPLQGPEAVPMRILLPAYVTSELKTAFQIGFTIFIPFLIIDLVIASVLMALGMMMVPPATIALPFKLMLFVLVDGWQLLMGSLAQSFYS
notes: FliP, Salmonella enterica serovar Typhimurium; signal peptide (residues 1 to 21) cleaved between Ala-21 and Gln-22 during membrane insertion; the mature protein begins at Gln-22; Five copies of FliP stand in the FliP5-FliQ4-FliR1 complex; also called mature FliP; FliP^1; source: membranes solubilised with 1% LMNG; reconstituted in a peptidisc
stoichiometry N: 5
